The supplement of paper PMC7877785
± gives the uncertainty stated by the source.

Experiment: self-splicing fitness, log relative to wild type (ln ratio); higher = more splicing; Tetrahymena group I intron in knt gene, E. coli kanamycin selection, DiMSum; sequences stand for … in CUCUCU…GGAGGGAAAAGUUAUCAGGCAUGCACCUGGUAGCUAGUCUUUAAACCAAUAGAUUGCAUCGGUUUAAAAGGCAAGACCGUCAAAUUGCGGGAAAGGGGUCAACAGCCGUUCAGUACCAAGUCUCAGGGGAAACUUUGAGAUGGCCUUGCAAAGGGUAUGGUAAUAAGCUGACGGACAUGGUCCUAACCACGCAGCCAAGUCCUAAGUCAACAGAUCUUCUGUUGAUAUGGAUGCAGUUCACAGACUAAAUGUCGGUCGGGGAAGAUGUAUUCUUCUCAUAAGAUAUAGUCGGACCUCUCCUUAAUGGGAGCUAGCGGAUGAAGUGAUGCAACACUGGAGCCGCUGGGAACUAAUUUGUAUGCGAAAGUAUAUUGAUUAGUUUUGGAGUACUCGUGGUCG
Summary of the method: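 A randomised library covering all eight P1ex-region intron nucleotides was built with the intron in the knt kanamycin-resistance gene on pET-22b(+) and held in E. coli BL21(DE3). Cells were grown overnight at 37°C or 30°C on LB agar, with or without 25 μg/mL kanamycin, plus 100 μg/mL carbenicillin, 50 μM IPTG and 0.2% rhamnose, and pooled colonies were amplicon-sequenced on an Illumina HiSeq 2500. DiMSum fitness is the error-weighted combination of wild-type-normalised replicate fold changes, kanamycin versus none.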

Sequence	self-splicing fitness (ln) (30 °C)	self-splicing fitness (ln) (37 °C)
CUCCAGCAAUAUUACGUUCG	-3.41 ± 0.13	-2.39 ± 0.17
UCAGAGCAAUAUUACGGCCU	-2.39 ± 0.34	-2.73 ± 0.31
GGAUAGCAAUAUUACGCCCG	-1.49 ± 0.24	-0.949 ± 0.27
UUGUAGCAAUAUUACGCUCC	-2.12 ± 0.43	–
ACAUAGCAAUAUUACGUCGC	-4.47 ± 0.38	-1.69 ± 0.24
UGAAAGCAAUAUUACGAGCA	-0.581 ± 0.089	0.406 ± 0.11
CAUCAGCAAUAUUACGUAUA	-1.68 ± 0.095	-0.354 ± 0.11
UGACAGCAAUAUUACGGCAA	-1.41 ± 0.14	-0.13 ± 0.17
UGAUAGCAAUAUUACGACGG	-1.4 ± 0.19	0.124 ± 0.18
UGUCAGCAAUAUUACGUUGU	-4.25 ± 0.27	-2.3 ± 0.16
GGUGAGCAAUAUUACGAUCU	-0.331 ± 0.18	-0.809 ± 0.27
GUACAGCAAUAUUACGCACU	-0.597 ± 0.13	-1.16 ± 0.24
UCUGAGCAAUAUUACGAGGU	-3.18 ± 0.23	–
GGCCAGCAAUAUUACGACGC	-1.02 ± 0.15	0.369 ± 0.17
CGAAAGCAAUAUUACGGAUA	-2.86 ± 0.18	-3 ± 0.19
CCUUAGCAAUAUUACGACGG	-2.31 ± 0.17	-2.95 ± 0.3
UAGCAGCAAUAUUACGGAAU	-3.87 ± 0.44	-2.13 ± 0.33
UUGCAGCAAUAUUACGGCGU	-0.34 ± 0.051	0.352 ± 0.065
GCAAAGCAAUAUUACGGCCC	-0.121 ± 0.18	-0.618 ± 0.27
CGGUAGCAAUAUUACGUGGU	-3.17 ± 0.21	-2.3 ± 0.21
GUGAAGCAAUAUUACGUCUA	0.147 ± 0.049	0.251 ± 0.066

Sequence	self-splicing fitness (ln) (30 °C)	self-splicing fitness (ln) (37 °C)
UUAUAGCAAUAUUACGAUCC	–	-2.87 ± 0.26
AGCUAGCAAUAUUACGUUCC	-0.609 ± 0.11	-1.76 ± 0.17
GUCAAGCAAUAUUACGCACA	-1.21 ± 0.12	-0.776 ± 0.13
UGGUAGCAAUAUUACGAAUC	-2.14 ± 0.32	–
UCCUAGCAAUAUUACGGUAC	-3.79 ± 0.26	-3.32 ± 0.47
GGGUAGCAAUAUUACGGAAG	-3.46 ± 0.35	-1.87 ± 0.45
GAAGAGCAAUAUUACGGAGC	–	-1.64 ± 0.37
UCCGAGCAAUAUUACGCUAC	-2.97 ± 0.38	–
AGGCAGCAAUAUUACGCACA	-0.332 ± 0.092	0.275 ± 0.11
AAGAAGCAAUAUUACGUAUU	-2.28 ± 0.16	-1.43 ± 0.12
CCGGAGCAAUAUUACGAUUU	-2.51 ± 0.36	-2.26 ± 0.3
CUCUAGCAAUAUUACGUUUC	-5.02 ± 0.45	-2.62 ± 0.19
GCUGAGCAAUAUUACGCUUU	-2.42 ± 0.12	-2.33 ± 0.18
UGUCAGCAAUAUUACGUCGA	-0.404 ± 0.073	-0.0273 ± 0.085
CUUGAGCAAUAUUACGGCCU	-3.92 ± 0.37	–
CGAAAGCAAUAUUACGCUAU	-4.13 ± 0.36	-2.4 ± 0.27
GCAGAGCAAUAUUACGUAUG	-2.86 ± 0.35	-1.4 ± 0.42
AUAUAGCAAUAUUACGUCGC	-2.48 ± 0.27	-1.31 ± 0.37
AAAGAGCAAUAUUACGCAUC	-3.52 ± 0.35	-2.24 ± 0.35
AGUUAGCAAUAUUACGAGUU	-1.5 ± 0.086	-0.514 ± 0.11
AUGCAGCAAUAUUACGCAUG	-3.28 ± 0.35	-2.66 ± 0.31

Sequence	self-splicing fitness (ln) (30 °C)	self-splicing fitness (ln) (37 °C)
CUAGAGCAAUAUUACGUGGG	-0.857 ± 0.13	-0.906 ± 0.16
GCCCAGCAAUAUUACGAUUA	-1.71 ± 0.1	-0.936 ± 0.089
AAGUAGCAAUAUUACGGCCC	-0.413 ± 0.17	-1.15 ± 0.26
AGGCAGCAAUAUUACGGACG	-0.899 ± 0.067	-0.218 ± 0.095
ACAAAGCAAUAUUACGUUCA	-1.2 ± 0.068	-0.708 ± 0.076
CAGCAGCAAUAUUACGGUCA	-2.45 ± 0.17	-1.22 ± 0.11
UGUAAGCAAUAUUACGCGUA	-0.832 ± 0.14	-0.754 ± 0.15
GAGUAGCAAUAUUACGCGUA	-2.66 ± 0.33	-0.648 ± 0.29
AAACAGCAAUAUUACGAUCC	-1.8 ± 0.088	-0.41 ± 0.11
GGCAAGCAAUAUUACGAUGA	-1.07 ± 0.11	-0.765 ± 0.13
GCUAAGCAAUAUUACGUUCG	-0.791 ± 0.097	-0.25 ± 0.17
ACGGAGCAAUAUUACGGCAC	-3.21 ± 0.28	-2.43 ± 0.23
AUCUAGCAAUAUUACGUCUU	-0.776 ± 0.077	0.147 ± 0.1
CUGUAGCAAUAUUACGUGAC	-0.572 ± 0.098	-0.0647 ± 0.16
ACUCAGCAAUAUUACGAGAG	-2.02 ± 0.14	-0.637 ± 0.12
GAAGAGCAAUAUUACGGGAC	-3.76 ± 0.25	-2.3 ± 0.24
GUAAAGCAAUAUUACGAGUA	-1.11 ± 0.12	-0.624 ± 0.14
CACCAGCAAUAUUACGUUCA	-3.07 ± 0.16	-2.15 ± 0.16
AUACAGCAAUAUUACGUUUU	-2.19 ± 0.12	-2.09 ± 0.15
GCGCAGCAAUAUUACGGGUG	-1.87 ± 0.083	-1.65 ± 0.11
